# Reference: article PMC9577226, “In vitro selection and optimization of high-affinity aptamer for milk allergen α-lactalbumin and its application in dual-mode detection”
# T1: alpha-lactalbumin (α-La) (Bos taurus (bovine milk), UniProt P00711 20-142)
# T1 sequence: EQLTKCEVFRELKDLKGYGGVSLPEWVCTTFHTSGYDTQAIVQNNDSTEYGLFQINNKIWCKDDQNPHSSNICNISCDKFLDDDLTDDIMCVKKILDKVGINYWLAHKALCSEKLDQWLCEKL
# B1: LA-1 (ssDNA)
# DNA: AGCAGCACAGAGGTCAGATGGTGCTGCGAACTTAACGCAAGATAGGCTGGACGCGAGTCCCCTATGCGTGCTACCGTGAA
# B2: LA-11 (ssDNA)
# DNA: AGCAGCACAGAGGTCAGATGTGGGTGCTGCGAAAGGACGGCATGGGGTCCAAAAGACCCCCCTATGCGTGCTACCGTGAA
# B3: LA-2 (ssDNA)
# DNA: AGCAGCACAGAGGTCAGATGGGCTGCGAACAGTTGCATATGGCGCGACTCTAGGCGGGTCCCTATGCGTGCTACCGTGAA
# B4: LA-9 (ssDNA)
# DNA: AGCAGCACAGAGGTCAGATGCTGGGCTGCGAATGACGAATAAATACGCCGTTTCAGACGGCCTATGCGTGCTACCGTGAA
# B5: LA-10 (ssDNA)
# DNA: AGCAGCACAGAGGTCAGATGTAGTGCTGCGAAGTTGGCTCCGGCGGCGTCAGTCTAGCCGCCTATGCGTGCTACCGTGAA
# B6: LA-1t (structured_DNA)
# DNA: AGCAGCACAGAGGTCAGATGGTGCTGCGAA
# Target: T1, alpha-lactalbumin (α-La)
# Assay: fluorescence graphene oxide (GO) assay; 50 mM Tris-HCl, 5 mM KCl, 100 mM NaCl, 1 mM MgCl2, pH 7.4; 100 nM FAM-aptamer, 0-400 ug/ml α-La, 1 h in the dark, then GO 15 min; assay temperature not stated (SELEX at 37 °C)
# Details: protein: commercial; label: 5'-FAM; 5' stem-loop (predicted)
row,Binder,Kd [nM]
1,B1,92.6 ± 18
2,B2,175 ± 28.3
3,B3,101 ± 21.3
4,B4,253 ± 32.2
5,B5,168 ± 28.9

# Same assay, conditions: protein: commercial; label: 5'-FAM; hairpin
row,Binder,Kd [nM]
1,B6,14.1 ± 4.15
